For the assay, the target named is PR20 modified with a dansyl group at the N-terminus (Dnc-PR20). The experiment in a line: other fluorescence titration.

Chain of Kapβ2 Δloop (Q92973 9-898, stated change not applied): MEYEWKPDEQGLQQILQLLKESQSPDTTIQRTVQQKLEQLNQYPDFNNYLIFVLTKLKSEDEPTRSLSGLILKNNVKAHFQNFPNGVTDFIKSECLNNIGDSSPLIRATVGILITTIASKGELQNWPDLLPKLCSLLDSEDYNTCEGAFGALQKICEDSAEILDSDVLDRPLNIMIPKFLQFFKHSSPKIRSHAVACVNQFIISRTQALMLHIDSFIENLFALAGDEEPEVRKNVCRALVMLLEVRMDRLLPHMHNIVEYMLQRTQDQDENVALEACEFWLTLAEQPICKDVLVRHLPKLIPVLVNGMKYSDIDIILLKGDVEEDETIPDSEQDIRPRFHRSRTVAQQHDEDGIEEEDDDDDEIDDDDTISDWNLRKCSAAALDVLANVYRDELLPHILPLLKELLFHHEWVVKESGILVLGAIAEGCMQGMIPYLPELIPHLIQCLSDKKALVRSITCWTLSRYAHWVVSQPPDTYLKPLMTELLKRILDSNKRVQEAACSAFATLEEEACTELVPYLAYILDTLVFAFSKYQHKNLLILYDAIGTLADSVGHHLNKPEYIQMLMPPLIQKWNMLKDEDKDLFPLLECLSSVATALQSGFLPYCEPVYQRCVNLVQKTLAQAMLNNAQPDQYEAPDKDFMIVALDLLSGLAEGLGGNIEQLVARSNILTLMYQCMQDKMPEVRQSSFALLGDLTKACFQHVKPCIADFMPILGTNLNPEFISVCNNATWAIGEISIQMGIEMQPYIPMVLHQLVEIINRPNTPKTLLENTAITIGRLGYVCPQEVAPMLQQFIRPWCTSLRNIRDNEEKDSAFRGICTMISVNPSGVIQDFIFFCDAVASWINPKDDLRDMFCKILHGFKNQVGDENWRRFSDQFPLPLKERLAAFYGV

Broadly, the Kd is the constant that tells how readily two partners part at equilibrium. A lower Kd goes with a tighter complex. “Kapβ2 Δloop (from UniProt Q92973-2 1-890) (natural protein)” yielded a Kd of 310 nM.

These data come from publication doi:10.1101/2024.07.03.601791.
